Experimental findings from patent EP1637166A2 are described below.

Assay [1] has as its target mouse CCR5 (mCCR5) cloned from B6 mice, transiently expressed on HeLa-MAGI cells (mouse) (UniProt P51682). Kind of assay: 0.5 nM 125I-labelled human RANTES on mCCR5-transfected HeLa-MAGI cells in a 1000-fold excess (500 nM) of cold human RANTES.
Assay [2] shares this target. Description: 0.5 nM 125I-labelled human RANTES on mCCR5-transfected HeLa-MAGI cells, no sera.

Sequence of UniProt P51682 (P51682 whole entry): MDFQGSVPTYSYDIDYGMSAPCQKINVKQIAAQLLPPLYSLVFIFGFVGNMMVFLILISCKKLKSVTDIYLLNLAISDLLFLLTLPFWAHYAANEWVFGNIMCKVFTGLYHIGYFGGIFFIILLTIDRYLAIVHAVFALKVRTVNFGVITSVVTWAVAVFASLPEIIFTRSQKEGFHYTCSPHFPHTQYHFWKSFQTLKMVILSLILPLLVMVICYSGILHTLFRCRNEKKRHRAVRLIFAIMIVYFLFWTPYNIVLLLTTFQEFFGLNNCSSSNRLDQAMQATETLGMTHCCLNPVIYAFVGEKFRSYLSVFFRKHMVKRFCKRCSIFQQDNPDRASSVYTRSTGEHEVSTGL

Turning to “125I-labelled human RANTES (Amersham) (from UniProt P13501 24-91) (ligand)”, the non-specific binding of iodinated RANTES in assay [1] worked out at 1300 cpm. Moreover, in assay [2], the maximally bound iodinated RANTES is 2550 cpm.
